# Measured values published in paper PMC3619014 (Molecular pharmaceutics, 2012).
# B1: NOTA-K3-VEGF121 (ligand)
# chain: KKKAPMAEGGGQNHHEVVKFMDVYQRSYCHPIETLVDIFQEYPDEIEYIFKPSCVPLMRCGGCCNDEGLECVPTEESNITMQIMRIKPHQGQHIGEMSFLQHNKCECRPKKDRARQEKCDKPRR
# modifications: NOTA (from p-SCN-Bn-NOTA) on lysine residues, estimated 1~2 NOTA residues in each NOTA-K3-VEGF121; positions not determined
# Target: human KDR (VEGFR-2) expressed on porcine aortic endothelial cells (PAE/KDR) (human, UniProt P35968 20-1356)
# Experiment: radioligand binding
# Sequence of human KDR (VEGFR-2) expressed on porcine aortic endothelial cells (PAE/KDR) (P35968 20-1356): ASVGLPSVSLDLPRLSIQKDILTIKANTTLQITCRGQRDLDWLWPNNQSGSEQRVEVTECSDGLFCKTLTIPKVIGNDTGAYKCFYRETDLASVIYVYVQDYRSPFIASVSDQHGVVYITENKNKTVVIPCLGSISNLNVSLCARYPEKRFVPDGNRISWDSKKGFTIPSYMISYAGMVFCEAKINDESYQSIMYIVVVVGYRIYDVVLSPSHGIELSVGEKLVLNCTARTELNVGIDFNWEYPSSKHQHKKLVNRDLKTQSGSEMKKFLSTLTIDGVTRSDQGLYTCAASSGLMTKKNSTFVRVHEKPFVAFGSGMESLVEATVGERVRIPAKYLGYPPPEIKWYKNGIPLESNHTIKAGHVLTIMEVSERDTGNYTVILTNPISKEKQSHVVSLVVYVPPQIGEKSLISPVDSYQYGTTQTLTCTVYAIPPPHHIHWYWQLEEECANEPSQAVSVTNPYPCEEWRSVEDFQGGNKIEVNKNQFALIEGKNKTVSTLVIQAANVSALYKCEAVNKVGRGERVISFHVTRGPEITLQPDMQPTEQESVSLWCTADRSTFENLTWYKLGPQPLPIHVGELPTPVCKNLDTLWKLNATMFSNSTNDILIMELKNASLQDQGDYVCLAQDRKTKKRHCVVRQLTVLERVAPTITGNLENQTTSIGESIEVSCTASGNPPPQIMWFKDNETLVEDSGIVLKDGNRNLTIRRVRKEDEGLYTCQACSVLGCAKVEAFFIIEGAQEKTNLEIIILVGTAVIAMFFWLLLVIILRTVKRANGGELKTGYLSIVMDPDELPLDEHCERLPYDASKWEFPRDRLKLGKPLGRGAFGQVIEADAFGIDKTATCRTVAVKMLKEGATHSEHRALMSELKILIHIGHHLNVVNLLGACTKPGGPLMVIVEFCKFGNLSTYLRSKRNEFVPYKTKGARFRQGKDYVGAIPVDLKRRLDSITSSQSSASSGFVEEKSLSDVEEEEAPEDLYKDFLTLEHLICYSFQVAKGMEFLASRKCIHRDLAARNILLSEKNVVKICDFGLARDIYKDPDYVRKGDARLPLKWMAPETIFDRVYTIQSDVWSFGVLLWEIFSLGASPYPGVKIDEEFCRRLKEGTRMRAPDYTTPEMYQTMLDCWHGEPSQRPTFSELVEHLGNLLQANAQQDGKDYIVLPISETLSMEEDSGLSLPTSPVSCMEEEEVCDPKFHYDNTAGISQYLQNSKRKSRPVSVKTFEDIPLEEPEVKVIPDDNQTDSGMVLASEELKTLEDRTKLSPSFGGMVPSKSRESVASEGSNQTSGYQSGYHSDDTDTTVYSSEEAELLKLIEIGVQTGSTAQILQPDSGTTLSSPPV
binder,measurement,value
B1,IC50,1.5 nM
